This is an account of results in US6670167.

The subject of the data set is T1, Syntide-2, synthetic substrate peptide PLARTLSVAGLPGKK
T1 sequence: PLARTLSVAGLPGKK

Take “Proteolytically cleaved Chk1, preparation HA2-022”: the Activity result is recorded as “+38 fold”, the Rate/min (/min (at 2 nM enzyme)) was found to be 0.0208 and the activity comparison entry is given as “the cleaved preparation was 38 fold more active than the non-cleaved preparation”.
